The values that follow come from article doi:10.1101/2023.11.15.567215 (bioRxiv, 2023).

This data set concerns the molecule itself. As to the kind of experiment: cross-linking.

B1: Mtb LexA (LexA of Mycobacterium tuberculosis), wild type (natural protein)
chain: MNDSNDTSVAGGAAGADSRVLSADSALTERQRTILDVIRASVTSRGYPPSIREIGDAVGLTSTSSVAHQLRTLERKGYLRRDPNRPRAVNVRGADDAALPPVTEVAGSDALPEPTFVPVLGRIAAGGPILAEEAVEDVFPLPRELVGEGTLFLLKVIGDSMVEAAICDGDWVVVRQQNVADNGDIVAAMIDGEATVKTFKRAGGQVWLMPHNPAFDPIPGNDATVLGKVVTVIRKV
Consider B1, for which the “stoichiometry N” value is 2.
